# From patent US20230250184A1
# Biological target: human CD22 on cells (Daudi, Raji, Nalm.6, K562-CD22) (human) (UniProt P20273)
# Test: flow cytometry on K562.huCD22.Luc cells against parental K562 cells, 4 C 30 min
# UniProt P20273, sequence (P20273 20-847): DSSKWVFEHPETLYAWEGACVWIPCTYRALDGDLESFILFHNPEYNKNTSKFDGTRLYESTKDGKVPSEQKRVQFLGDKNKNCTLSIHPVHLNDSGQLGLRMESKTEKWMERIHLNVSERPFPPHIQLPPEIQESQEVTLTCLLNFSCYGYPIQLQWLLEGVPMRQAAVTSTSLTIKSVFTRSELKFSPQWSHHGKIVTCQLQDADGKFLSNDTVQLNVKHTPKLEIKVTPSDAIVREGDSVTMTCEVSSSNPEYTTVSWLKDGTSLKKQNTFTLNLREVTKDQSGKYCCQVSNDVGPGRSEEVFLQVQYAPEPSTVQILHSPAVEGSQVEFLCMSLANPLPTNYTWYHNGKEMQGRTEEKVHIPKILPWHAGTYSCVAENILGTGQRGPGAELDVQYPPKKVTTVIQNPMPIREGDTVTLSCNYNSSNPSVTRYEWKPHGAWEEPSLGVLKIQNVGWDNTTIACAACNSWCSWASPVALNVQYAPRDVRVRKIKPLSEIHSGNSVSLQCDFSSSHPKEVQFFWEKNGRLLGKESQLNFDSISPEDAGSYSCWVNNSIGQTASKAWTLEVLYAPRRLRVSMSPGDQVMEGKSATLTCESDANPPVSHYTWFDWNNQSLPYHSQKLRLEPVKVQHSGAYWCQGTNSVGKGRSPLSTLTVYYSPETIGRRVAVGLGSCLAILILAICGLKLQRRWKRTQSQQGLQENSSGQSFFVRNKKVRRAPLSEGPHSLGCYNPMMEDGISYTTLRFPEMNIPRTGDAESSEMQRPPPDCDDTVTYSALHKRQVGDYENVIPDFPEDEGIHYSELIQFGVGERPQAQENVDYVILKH
substance,measurement,value
"PE conjugated anti-human CD22 antibody (Miltenyi Biotec, Cat. No. 130-105-086)",MFI fold over K562 cells (negative control),642 fold
